Experimental data published in patent publication US20210395390A1 (Bayer, published 2021).
Substitutions are numbered along the chain they refer to.

B1: TPP-9251 (antibody, human IgG1, lambda, V domains shown)
VH: EVQLLESGGGLVQPGGSLRLSCAASGFTFSNYGIHWVRQAPGKGLEWVSAIGTGGDTYYADSVTGRFTISRDNSKNTLYLQMNSLRAEDTAVYYCARDRGYYDILTGLYDYWGQGTLVTVSS
VL: QSVLTQPPSASGTPGQRVTISCSGSSSNIGNNYVNWYQQLPGTAPKLLIYGNYHRPSGVPDRFSGSKSGTSASLAITGLQAEDEADYYCSSYAGSNNWVFGGGTKLTVLG
B2: TPP-9238 (antibody, human IgG1, lambda, V domains shown)
VH: B1 VH with T64M
VL: B1 VL
B3: TPP-9258 (antibody, human IgG1, lambda, V domains shown)
VH: B1 VH with N31S, I34M, T64Q
VL: B1 VL

Target: anti-FXIa antibody 076D-M007-H04-CDRL3-N110D
Assay: cell-based or functional assay

| Binder | aPTT 1.5 X [µM] | biochemical FXIa assay IC 50 [nM] | plasma based assay IC 50 [nM] |
| --- | --- | --- | --- |
| B1 | 0.06 | 0.2 | 6 |
| B2 | 0.1 | 0.5 | 10 |
| B3 | 0.1 | 0.5 | 7 |
